Tested on: ZF6-KRAB (synthetic construct)
Test: EMSA
Conditions: 2.5 uM protein, DNA titrated 130-200 nM; apparent Kd, Scatchard; 6.25 mM MgCl2; 25 mM Hepes pH 7.9, 50 mM KCl, 6.25 mM MgCl2, 1% Nonidet P-40, 5% glycerol; 15 min on ice; 5% PAGE in 0.5x TBE at 4 C

Q: Which Kd does the source give for hRHO 65 bp duplex oligonucleotide here?
A: The Kd was 108 nM.

Reference: publication PMC4805542
